This note sets out measurements from PMC4595793, “Beauveria bassiana Lipase A expressed in Komagataella (Pichia) pastoris with potential for biodiesel catalysis” (Frontiers in Microbiology, 2015).

Substrate in the series: CCCC(=O)Oc1ccc([N+](=O)[O-])cc1
Nature of the series: spectrophotometric p-nitrophenol release. The format is biochemical, Beauveria bassiana. The note with it: 25 mM phosphate buffer pH 6.0, 50°C, 2 min, free enzyme, 0.05% Triton X-100 in the general assay, Hill coefficient n printed 1.46. From the text:
spectrophotometric p-nitrophenol release on BbLA (Beauveria bassiana lipase A)

The Km is the substrate concentration at which the rate is half of its maximum.

B1: BbLA (Beauveria bassiana lipase A) (Beauveria bassiana ARSEF 2860) (protein)
chain: LSADIDGAPLIHLDYATYRGSRVAGAGVDQFLGMRFAKPPLGDLRFRAPEEPFHEDQVQDATKLGALCVGTVDGSGVSPNDVFGEDCLFANLFKPANATTASKLPVWVFIQGGGYAHNSNGNYNGTQIVQQSGGNVVFVSFNYRVGVLGFLASEEVRKDGALNAGLLDQRLFLKWVQKYIGQFGGDPNHVVIHGDSAGGGSVSHHLTAYGGNDKENLFVGGIPESPFWPTQRKVDQMEFQYTRLLRDTKCDSLDCLRKLDVGALGNASQPSPFPEAHTEDPAPLWYWLPVIDGDLVQDNMYKQFLTGRFKRVPLLVGADTDEGTLFAVNASTETEVSSFLRANYPRLQEWQLDIVSTIYPKMKPLPKHAAYFPSAAAVYGDSTFVCAGNTMSDAISAFVGPDKLWNYRYNVADPEQVAEGFGVPHVSELGAIFGPDNIRGHEAKSLRTTNAPIVPVTMAYFTSFVRFLDPNTSRQPGSPLWQNWGAFVGEQGQRMRLETNNTAMETVPFDLVTKCALWKLLAESMDV
notes: 19-residue signal peptide removed (precursor 546 aa, 1,641 bp); alpha-factor secretion signal, C-terminal 6His (554 aa printed; b43 says N-terminal His); secreted by Komagataella pastoris GS115, N-glycosylated, about 78 kDa (60 kDa after EndoHf); Octyl-sepharose purified
B1: the Km was 0.5546 µM.
